Test results as given in PMC11472164.

Key:
Assay in all cases: EMSA
[1] = biological target: FANCMc (full-length FANCM complex) (UniProt Q8IYD8;Q8N2Z9;A8MT69;Q9BTP7 1-2048;1-138;1-81;1-215)
[2] = biological target: T1, trFANCM (translocase domain) (UniProt Q8IYD8 82-647)
T1 sequence: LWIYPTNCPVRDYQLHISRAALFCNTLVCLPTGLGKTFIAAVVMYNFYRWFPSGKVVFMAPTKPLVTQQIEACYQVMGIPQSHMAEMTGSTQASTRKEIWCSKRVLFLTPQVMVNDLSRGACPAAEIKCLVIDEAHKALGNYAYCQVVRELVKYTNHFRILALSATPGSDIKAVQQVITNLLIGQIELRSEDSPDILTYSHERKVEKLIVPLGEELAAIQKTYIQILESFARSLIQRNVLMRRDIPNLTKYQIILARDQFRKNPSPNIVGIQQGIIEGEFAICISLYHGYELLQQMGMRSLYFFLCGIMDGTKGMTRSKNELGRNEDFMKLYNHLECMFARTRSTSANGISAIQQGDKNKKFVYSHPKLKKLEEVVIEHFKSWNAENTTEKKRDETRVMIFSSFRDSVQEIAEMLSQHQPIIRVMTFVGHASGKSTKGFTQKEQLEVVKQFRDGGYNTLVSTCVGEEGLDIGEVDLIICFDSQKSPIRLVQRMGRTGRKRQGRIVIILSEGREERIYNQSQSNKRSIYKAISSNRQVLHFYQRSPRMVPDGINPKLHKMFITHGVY

FANCMc-deltaHel2i = FANCMc-deltaHel2i (UniProt Q8IYD8;Q8N2Z9;A8MT69;Q9BTP7 1-297+444-2048;1-138;1-81;1-215, internal_change)
trFANCM-deltaHel2i = biological target: T2, trFANCM-deltaHel2i (UniProt Q8IYD8 82-647, del298-443)
T2 sequence: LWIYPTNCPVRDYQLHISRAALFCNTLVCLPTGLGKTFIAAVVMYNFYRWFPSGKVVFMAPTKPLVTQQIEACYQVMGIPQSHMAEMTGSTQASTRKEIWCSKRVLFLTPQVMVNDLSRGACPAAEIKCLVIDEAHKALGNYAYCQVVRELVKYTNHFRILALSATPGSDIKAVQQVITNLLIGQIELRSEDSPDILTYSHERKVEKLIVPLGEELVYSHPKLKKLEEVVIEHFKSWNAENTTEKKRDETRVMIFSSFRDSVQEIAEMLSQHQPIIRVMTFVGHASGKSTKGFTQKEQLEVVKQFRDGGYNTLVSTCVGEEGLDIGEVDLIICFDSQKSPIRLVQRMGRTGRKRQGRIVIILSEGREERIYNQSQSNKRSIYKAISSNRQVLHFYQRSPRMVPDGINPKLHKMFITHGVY

B1: 30 bp static (non-migratable) Holliday junction, X0s1-4, IRDye700 (structured_DNA)
DNA 1: TACCAGTGCCTTGCTAGGACATCTTTGCCCAC
DNA 2: GTGGGCAAAGATGTCCATCTGTTGTAATCGTC
DNA 3: GACGATTACAACAGATCATGGAGCTGTCTAGA
DNA 4: TCTAGACAGCTCCATGTAGCAAGGCACTGGTA
binding result [1]: binds
binding result [2]: binds
binding result (FANCMc-deltaHel2i): binds
binding signal (trFANCM-deltaHel2i): > 60 fold reduction vs trFANCM
